In patent US20220031857A1:

What was measured:
[1] = target: recombinant mouse TfR1 (transferrin receptor 1) (mouse) (UniProt Q62351); experiment: Octet, mouse TfR1 on anti-His biosensors, analyte 10 nM, PBS pH 7.2
[2] = target: recombinant human TfR1 (transferrin receptor 1) (human) (UniProt P02786); experiment: Octet, human TfR1 immobilised on biosensors; row buffer (no first antibody), column cont. (taken as the control VNAR F02)
[3] = target: recombinant mouse TfR1 (transferrin receptor 1) (mouse) (UniProt Q62351); experiment: Octet, mouse TfR1 on anti-His biosensors, analyte 10 nM, PBS pH 6.0
[4] = target: recombinant mouse TfR1 (transferrin receptor 1) (mouse) (UniProt Q62351); experiment: ELISA, plate coated with 1 µg/ml recombinant mouse TfR1, purified VNAR-Fc titrated, 4-parameter fit
[5] = target: recombinant human TfR1 (transferrin receptor 1) (human) (UniProt P02786); experiment: Octet, human TfR1 immobilised; 8D3 as first antibody, which does not bind human TfR1 (grey column); white cell; cont. taken as the control VNAR F02
[6] = target: recombinant human TfR1 (transferrin receptor 1) (human) (UniProt P02786); experiment: ELISA on coated human TfR1, purified VNAR-Fc
[7] = target: recombinant human TfR1 (transferrin receptor 1) (human) (UniProt P02786); experiment: ELISA, plate coated with 1 µg/ml recombinant human TfR1, purified VNAR-Fc titrated, 4-parameter fit
[8] = target: recombinant human TfR1 (transferrin receptor 1) (human) (UniProt P02786); experiment: SPR (Biacore), single-cycle kinetics, His-tagged TfR1 captured, VNAR-Fc injected
[9] = target: recombinant mouse TfR1 (transferrin receptor 1) (mouse) (UniProt Q62351); experiment: as above
[10] = target: recombinant mouse TfR1 (transferrin receptor 1) (mouse) (UniProt Q62351); experiment: ELISA on coated mouse TfR1, purified VNAR-Fc
[11] = target: recombinant mouse TfR1 (transferrin receptor 1) (mouse) (UniProt Q62351); experiment: Octet, mouse TfR1 immobilised on biosensors; row buffer (no first antibody), column cont. (taken as the control VNAR F02)

Sequence of recombinant human TfR1 (transferrin receptor 1) (human) (P02786 89-760 limits assumed): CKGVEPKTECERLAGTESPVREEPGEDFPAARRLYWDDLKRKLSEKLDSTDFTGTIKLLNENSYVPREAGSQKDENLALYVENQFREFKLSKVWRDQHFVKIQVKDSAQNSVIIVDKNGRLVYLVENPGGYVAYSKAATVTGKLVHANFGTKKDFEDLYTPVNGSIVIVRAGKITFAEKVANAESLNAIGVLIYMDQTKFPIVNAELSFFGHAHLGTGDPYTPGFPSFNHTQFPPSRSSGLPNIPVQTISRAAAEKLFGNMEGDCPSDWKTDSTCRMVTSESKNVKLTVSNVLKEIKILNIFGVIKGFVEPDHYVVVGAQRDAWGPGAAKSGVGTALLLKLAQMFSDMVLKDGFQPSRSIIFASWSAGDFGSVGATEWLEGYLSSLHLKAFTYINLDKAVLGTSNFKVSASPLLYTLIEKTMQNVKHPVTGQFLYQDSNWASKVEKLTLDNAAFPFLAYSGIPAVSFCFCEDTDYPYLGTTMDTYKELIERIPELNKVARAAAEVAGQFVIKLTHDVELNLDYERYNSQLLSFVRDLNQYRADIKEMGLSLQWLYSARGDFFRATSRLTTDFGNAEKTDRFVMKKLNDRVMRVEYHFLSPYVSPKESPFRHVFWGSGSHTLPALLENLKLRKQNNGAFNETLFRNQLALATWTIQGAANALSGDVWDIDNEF
Sequence of recombinant mouse TfR1 (transferrin receptor 1) (mouse) (Q62351 89-763 limits assumed): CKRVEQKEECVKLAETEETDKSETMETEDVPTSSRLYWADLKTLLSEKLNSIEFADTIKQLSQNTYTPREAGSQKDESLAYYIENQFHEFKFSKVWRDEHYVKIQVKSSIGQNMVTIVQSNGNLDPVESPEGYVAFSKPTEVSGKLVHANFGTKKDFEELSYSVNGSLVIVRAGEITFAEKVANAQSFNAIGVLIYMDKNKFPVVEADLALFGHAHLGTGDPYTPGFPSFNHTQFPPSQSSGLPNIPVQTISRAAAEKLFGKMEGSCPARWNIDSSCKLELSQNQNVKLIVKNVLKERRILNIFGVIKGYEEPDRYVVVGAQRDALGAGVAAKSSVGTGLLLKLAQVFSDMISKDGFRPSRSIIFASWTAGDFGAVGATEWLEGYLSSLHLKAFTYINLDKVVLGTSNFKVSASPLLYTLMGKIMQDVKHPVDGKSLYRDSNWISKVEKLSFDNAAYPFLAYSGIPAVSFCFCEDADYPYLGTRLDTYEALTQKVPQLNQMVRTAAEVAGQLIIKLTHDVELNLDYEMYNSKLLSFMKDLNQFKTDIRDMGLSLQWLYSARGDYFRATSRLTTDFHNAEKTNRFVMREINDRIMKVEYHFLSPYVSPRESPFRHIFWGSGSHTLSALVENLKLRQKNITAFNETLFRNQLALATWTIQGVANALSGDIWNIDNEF

- Kd [1]: 0.294 nM
- koff [1]: 9.86e-05 s⁻¹
- kon [1]: 335000 M⁻¹ s⁻¹
- Octet signal as second antibody after buffer [2]: 0.386
- Kd [3]: 0.344 nM
- koff [3]: 0.000147 s⁻¹
- kon [3]: 426000 M⁻¹ s⁻¹
- EC50 [4]: 38.2 nM
- Octet signal as second antibody after 8D3 [5]: 0.381
- EC50 [6]: 1 nM
- EC50 [7]: 3.69 nM
- Kd [8]: 0.969 nM
- koff [8]: 0.00011 s⁻¹
- kon [8]: 113000 M⁻¹ s⁻¹
- Kd [9]: 1.46 nM
- koff [9]: 0.00016 s⁻¹
- kon [9]: 109000 M⁻¹ s⁻¹
- EC50 [10]: 10 nM
- Octet signal as second antibody after buffer [11]: 0.194
Substance: F02 control VNAR-Fc (Fc fusion)
